Data as given in US20140286898A1 (Amgen, published 2014).

T1: CD25 (IL-2Rα) on the surface of activated T cells (UniProt P01589 22-272, limits assumed)
T1 construct: whole, on cells; also called cell surface CD25
T1 sequence (looked up): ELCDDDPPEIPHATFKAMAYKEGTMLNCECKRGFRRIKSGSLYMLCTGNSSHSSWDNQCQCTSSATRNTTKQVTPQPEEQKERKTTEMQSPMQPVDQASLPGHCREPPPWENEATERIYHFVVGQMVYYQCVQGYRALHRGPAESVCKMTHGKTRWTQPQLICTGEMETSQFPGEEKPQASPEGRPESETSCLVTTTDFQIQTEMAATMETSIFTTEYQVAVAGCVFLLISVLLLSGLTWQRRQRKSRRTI


Target: T1, CD25 (IL-2Rα) on the surface of …
Experiment: flow cytometry, binding to CD25 on the surface of activated T cells

Kd | binding result | Binder
~2 nM |  | HaMut1D (V69A, Q74P, N88D, C125A) (ligand, IL-2 mutein without Fc; not shown: C-terminal FLAG and poly-His tag) APTSSSTKKTQLQLEHLLLDLQMILNGINNYKNPKLTRMLTFKFYMPKKATELKHLQCLEEELKPLEEALNLAPSKNFHLRPRDLISDINVIVLELKGSETTFMCEYADETATIVEFLNRWITFAQSIISTLT
 | binds | HaMut2D (N30S, V69A, Q74P, N88D, C125A) (ligand, not shown: C-terminal FLAG and poly-His tag) APTSSSTKKTQLQLEHLLLDLQMILNGINSYKNPKLTRMLTFKFYMPKKATELKHLQCLEEELKPLEEALNLAPSKNFHLRPRDLISDINVIVLELKGSETTFMCEYADETATIVEFLNRWITFAQSIISTLT
 | binds | HaMut6D (E68D, V69A, Q74P, N88D, C125A) (ligand, not shown: C-terminal FLAG and poly-His tag) APTSSSTKKTQLQLEHLLLDLQMILNGINNYKNPKLTRMLTFKFYMPKKATELKHLQCLEEELKPLEDALNLAPSKNFHLRPRDLISDINVIVLELKGSETTFMCEYADETATIVEFLNRWITFAQSIISTLT
 | binds | HaMut4D (T37A, V69A, Q74P, N88D, C125A) (ligand, not shown: C-terminal FLAG and poly-His tag) APTSSSTKKTQLQLEHLLLDLQMILNGINNYKNPKLARMLTFKFYMPKKATELKHLQCLEEELKPLEEALNLAPSKNFHLRPRDLISDINVIVLELKGSETTFMCEYADETATIVEFLNRWITFAQSIISTLT
 | binds | HaMut8D (K35R, K48E, E68D, N88D, C125A) (ligand, not shown: C-terminal FLAG and poly-His tag) APTSSSTKKTQLQLEHLLLDLQMILNGINNYKNPRLTRMLTFKFYMPEKATELKHLQCLEEELKPLEDVLNLAQSKNFHLRPRDLISDINVIVLELKGSETTFMCEYADETATIVEFLNRWITFAQSIISTLT
 | binds | HaMut3D (K35R, V69A, Q74P, N88D, C125A) (ligand, not shown: C-terminal FLAG and poly-His tag) APTSSSTKKTQLQLEHLLLDLQMILNGINNYKNPRLTRMLTFKFYMPKKATELKHLQCLEEELKPLEEALNLAPSKNFHLRPRDLISDINVIVLELKGSETTFMCEYADETATIVEFLNRWITFAQSIISTLT
~0.2 nM |  | HaMut7D (N71R, V69A, Q74P, N88D, C125A) (ligand, not shown: C-terminal FLAG and poly-His tag) APTSSSTKKTQLQLEHLLLDLQMILNGINNYKNPKLTRMLTFKFYMPKKATELKHLQCLEEELKPLEEALRLAPSKNFHLRPRDLISDINVIVLELKGSETTFMCEYADETATIVEFLNRWITFAQSIISTLT
 | binds | HaMut5D (K48E, V69A, Q74P, N88D, C125A) (ligand, not shown: C-terminal FLAG and poly-His tag) APTSSSTKKTQLQLEHLLLDLQMILNGINNYKNPKLTRMLTFKFYMPEKATELKHLQCLEEELKPLEEALNLAPSKNFHLRPRDLISDINVIVLELKGSETTFMCEYADETATIVEFLNRWITFAQSIISTLT
